Reference: US7393946, “Method of modulating metabolite biosynthesis in recombinant cells” (Rijksuniversiteit Leiden)

Columns and labels:
[1] = target: ORCA-2 (Catharanthus roseus); experiment: cell_activity; within Str1 BH promoter, GUS/CAT, C. roseus cells
[2] = target: ORCA-1 (Catharanthus roseus); experiment: as above
Sequence of ORCA-1 (Catharanthus roseus) (chain, as listed by the source): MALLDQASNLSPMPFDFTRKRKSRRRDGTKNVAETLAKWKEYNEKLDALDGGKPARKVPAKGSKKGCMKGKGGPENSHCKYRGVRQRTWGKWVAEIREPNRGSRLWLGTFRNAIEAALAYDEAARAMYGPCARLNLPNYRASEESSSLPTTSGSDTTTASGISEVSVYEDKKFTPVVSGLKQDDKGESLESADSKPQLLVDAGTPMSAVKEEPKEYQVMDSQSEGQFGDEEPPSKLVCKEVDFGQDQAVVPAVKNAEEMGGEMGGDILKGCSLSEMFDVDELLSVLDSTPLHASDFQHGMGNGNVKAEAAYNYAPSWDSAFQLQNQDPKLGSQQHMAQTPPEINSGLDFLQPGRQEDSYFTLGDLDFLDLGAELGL

Sequence of ORCA-2 (Catharanthus roseus) (chain, as listed by the source): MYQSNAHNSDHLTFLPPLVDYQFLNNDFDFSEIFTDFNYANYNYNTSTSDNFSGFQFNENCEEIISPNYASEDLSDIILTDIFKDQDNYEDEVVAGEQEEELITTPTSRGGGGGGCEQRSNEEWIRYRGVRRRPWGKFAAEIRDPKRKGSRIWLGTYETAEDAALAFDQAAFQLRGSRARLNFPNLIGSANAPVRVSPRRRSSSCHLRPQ

B1: RV region of Str1 promoter (dsDNA)
DNA 1: GTACATCACTCTTAGACCGCCTTCTTTGAAAGTGATTTCCCTTGGACC
DNA 2: GGTCCAAGGGAAATCACTTTCAAAGAAGGCGGTCTAAGAGTGATGTAC
B1 showed an activity [1] of 3.3 fold induction and an activity [2] of 1.6 fold induction.
